Results on seven molecules are retold here after patent publication US20210139589A1 (APEXIGEN, published 2021).

For assay [1], the target named is T1, human VISTA expressed on the cell surface (HEK293 cells transfected with human VISTA cDNA); native on human … (human, UniProt Q9H7M9 33-311).
T1 construct: whole, on cells; also called PD-1H
T1 sequence (looked up): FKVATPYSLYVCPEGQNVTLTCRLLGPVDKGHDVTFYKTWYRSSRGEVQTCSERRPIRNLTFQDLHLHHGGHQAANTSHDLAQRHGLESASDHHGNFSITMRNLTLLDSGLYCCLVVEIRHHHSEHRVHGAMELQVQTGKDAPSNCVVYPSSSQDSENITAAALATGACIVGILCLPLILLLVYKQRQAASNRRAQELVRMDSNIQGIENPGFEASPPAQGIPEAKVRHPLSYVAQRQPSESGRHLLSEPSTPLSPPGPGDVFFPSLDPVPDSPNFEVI
Nature of the assay: method not stated; table follows flow cytometry on HEK293 cells transfected with human VISTA. A general note: A flow cytometer gives signals particle by particle.

For assay [2], the target named is T1, human VISTA expressed on the cell …. The assay can be described thus: flow cytometry on HEK293 cells transfected with human VISTA, detection with anti-human Ig; EC50 table under the graph. Here is the method:
In order to examine the ability of the 7 humanized anti-VISTA antibodies to bind to cell surface expressed VISTA, HEK293 cells were transfected with human VISTA cDNA for 24 hours using Fugene 6 transfection reagent. Cells were harvested by trypsinization, re-suspended in FACS buffer and plated in 96-well plates. Cells were incubated with the concentration of anti-VISTA antibodies indicated in FIG. 5 for 30 minutes on ice. Antibodies were detected using anti-human Ig antibodies and binding was assessed on the MACSQuant flow cytometer (FIG. 5).

B1: humanized anti-VISTA antibody 14D8-HZD2 (antibody, human IgG1, kappa, V domains shown)
VH: EVQLVESGGGLVQPGGSLRLSCAASGFDLSSAYYMCWVRQAPGKGLEWVGCIATGSGSTYYASWAKGRFTISRDNSKNTLYLQMNSLRAEDTAVYYCARAPYYSYDGYDYALNLWGQGTLVTVSS
VL: DIQMTQSPSSVSASVGDRVTITCQASEDIVTYLAWYQQKPGKAPKLLIYAASTLASGVPSRFSGSGSGTDFTLTISSLQPEDFATYYCQQTYNYADTDNAFGGGTKVEIKR
notes: kappa light chain
The term Kd denotes the concentration at which binding is half-saturated. As a reminder, the EC50 is the concentration at which the effect is half-maximal. Low values mean a more potent agent, high ones a less potent agent. In assay [1], B1 showed a Kd of 2.2 nM. For the same molecule, the EC50 in assay [2] came out at 2.83 nM.

B2: humanized anti-VISTA antibody 2D12-HZD3 (antibody, human IgG1, kappa, V domains shown)
VH: EVQLVESGGGLVQPGGSLRLSCAASGIDLSSYAMGWVRQAPGKGLEWVGIISSSGSAFYASWAKGRFTISRDNSKNTLYLQMNSLRAEDTAVYYCARHYAGYTTPYYFNFWGQGTLVTVSS
VL: AIQMTQSPSSLSASVGDRVTITCQASENIYSNLAWYQQKPGKAPKVLIYAASDLASGVPSRFSGSGSGTDFTLTISSLQPEDFATYYCQQGFSSSNVDNAFGGGTKVEIKR
notes: kappa light chain
As to B2, binding in assay [1] was put at a Kd of 1.31 nM. The same molecule registered a half-maximal effective concentration (EC50) in assay [2] of 1.75 nM.

B3: humanized anti-VISTA antibody 3A5-HZD (antibody, human IgG1, kappa, V domains shown)
VH: EVQLVESGGGLVQPGGSLRLSCAASGFSLSSENWICWVRQAPGKGLEWVGCICGANGGSAYHANWVNGRFTISRDNSKNTLYLQMNSLRAEDTAVYYCARAAGVSNAYYFDLWGQGTLVTVSS
VL: DIQMTQSPSSVSASVGDRVTITCQASQYIYINLAWYQQKPGKAPKLLIYDASDLASGVPSRFSGSGSGTDFTLTISSLQPEDFATYYCQCTYGGSTYGNAFGGGTKVEIKR
notes: kappa light chain
With B3, binding in assay [1] was characterised by a dissociation constant (Kd) of 0.293 nM. The molecule further displayed an EC50 in assay [2] of 0.483 nM.

B4: humanized anti-VISTA antibody 29G7-HZD2 (antibody, human IgG1, kappa, V domains shown)
VH: EVQLVESGGGLVQPGGSLRLSCAASGFSLSSYAMGWVRQAPGKGLEWVGIIIVSGNIYYASWAKGRFTISRDNSKNTLYLQMNSLRAEDTAVYYCARGDGYTYGLWGQGTLVTVSS
VL: DIQMTQSPSTLSASVGDRVTITCQASQSVYSRYLAWYQQKPGKAPKLLIYSASTLASGVPSRFSGSGSGTEFTLTISSLQPDDFATYYCQGTFYIPDYIDGFGGGTKVEIKR
notes: kappa light chain
In the case of B4, binding in assay [1] was put at a Kd of 0.281 nM. The same molecule came in with an EC50 in assay [2] of 0.463 nM.

B5: humanized anti-VISTA antibody 29G7-HZD4 (antibody, human IgG1, kappa, V domains shown)
VH: EVQLVESGGGLVQPGGSLRLSCAASGFSLSSYAMGWVRQAPGKGLEWVGIIIVSGNIYYASWAKGRFTISRDNSKNTLYLQMNSLRAEDTAVYYCARGDGYTYGLWGQGTLVTVSS
VL: EIVMTQSPATLSLSPGERATLSCQASQSVYSRYLAWYQQKPGQAPRLLIYSASTLASGIPARFSGSGSGTDFTLTISSLQPEDFAVYYCQGTFYIPDYIDGFGGGTKVEIKR
notes: kappa light chain
In assay [1], B5 returned a Kd of 0.295 nM. In assay [2], this molecule registered an EC50 of 0.477 nM.

B6: humanized anti-VISTA antibody 14F1-HZD2 (antibody, human IgG1, kappa, V domains shown)
VH: EVQLLESGGGLVQPGGSLRLSCAASGFSFSSSYYMCWVRQAPGKGLEWVACFYAGFSGSTYYASWAKGRFTISRDNSKNTLYLQMNSLRAEDTAVYYCAKGASTYGYTGYDYAGDYFILWQPGTLVTVSS
VL: DIQMTQSPSSVSASVGDRVTITCQASQNIYSNLAWYQQKPGKAPKLLIYAASNLASGVPSRFSGSGSGTDFTLTISSLQPEDFATYYCQSAYYSSSADSYNAFGGGTKVEIKR
notes: kappa light chain
As to B6, in assay [1], binding was characterised by a dissociation constant (Kd) of 2.19 nM. In assay [2], this molecule showed an EC50 of 2.95 nM.

B7: humanized anti-VISTA antibody 41A11-HZD2 (antibody, human IgG1, kappa, V domains shown)
VH: EVQLLESGGGLVQPGGSLRLSCAASGFSFSSSYYMCWVRQAPGKGLEWVGCFYAGFSGGTYYASWAKGRFTISRDNSKNTLYLQMNSLRAEDTAVYYCAKGANTYGYTGYDYAGDYFTLWGQGTLVTVSS
VL: DIQMTQSPSTLSASVGDRVTITCQASQNIGSNLAWYQQKPGKAPKLLIYAASNLESGVPSRFSGSGSGTEFTLTISSLQPDDFATYYCQSAYYSSVDSYNTFGGGTKVEIKR
notes: kappa light chain
As for B7, in assay [1], the Kd turned out to be 1.35 nM. Besides, the EC50 in assay [2] is 1.84 nM.
